Test [1] addresses HIV-1 reverse transcriptase p51 subunit (residues 1-440) (human immunodeficiency virus type 1 (HIV-1)). The experiment in a line: SEC-MALS.
For test [2], the target named is HIV-1 reverse transcriptase p66 subunit (immature RT precursor) (human immunodeficiency virus type 1 (HIV-1)). The experiment in a line: SEC-MALS.

The text below walks through data of publication PMC4441793.

Where only a bound is given, the exact number is not on record here.

In general, stoichiometry N refers to the number of molecules, sites or subunits per partner or assembly. In test [1], “HIV-1 reverse transcriptase p51 subunit (residues 1-440) (domain or fragment)” came in with a percent dimer in the NMR sample of less than 60% and a stoichiometry N of 2.

With “HIV-1 reverse transcriptase p66 subunit (immature RT precursor) (enzyme)”, in test [2], the stoichiometry N was determined as 2.
